We go through 4 molecules from patent publication US20150218283A1 (BIOSCEPTRE INTERNATIONAL, published 2015).

The target of assay [1] is T1, E200-300 peptide (complex peptide epitope of human P2X7 receptor).
T1 peptide: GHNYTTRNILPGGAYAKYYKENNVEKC
Briefly: ELISA; Fab. For orientation: In an ELISA, binding on a coated surface is turned into a signal by an enzyme label.

Assay [2] has as its target T2, E200-300 peptide (complex peptide epitope of human P2X7 receptor) (human).
T2 construct: also called antigen E200-300
T2 peptide: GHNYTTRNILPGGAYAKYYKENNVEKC
Briefly: ELISA on the E200-300 epitope target.

Assay [3] deals with T2, E200-300 peptide (complex peptide …). In words: method not stated.

B1: 2F6 WT recombinant Fab (Fab, V domains shown)
VH: DVKLVESGGGLVKLGGSLKLSCAASGFTFSSYYMSWVRQTPEKRLELVAAINSNGGSTYYPDTVKGRFTISRDNAKNTLYLQMSSLKSEDTAFYYCTRHYSSRFFDVWGAGTTVTVSS
VL: DIVMTQSQKFMSTSVGDRVSVTCKASQNVGTNVAWYQQKPGQSPKALIYSASFRYSGVPDRFTGSGSGTDFTLTISNVQSEDLAEFFCQQYNSYPFTFGSGTRLEIK
The EC50 is the concentration needed to bring the measured effect to its halfway point. Low readings indicate a more potent agent, high ones a less potent agent. B1: in assay [1], the EC50 was about 250 mg/L.

B2: 2F6 IgM antibody (original mouse hybridoma antibody, IgM class with Kappa light chains) (antibody, V domains shown)
VH: DVKLVESGGGLVKLGGSLKLSCAASGFTFSSYYMSWVRQTPEKRLELVAAINSNGGSTYYPDTVKGRFTISRDNAKNTLYLQMSSLKSEDTAFYYCTRHYSSRFFDVWGAGTTVTVSS
VL: DIVMTQSQKFMSTSVGDRVSVTCKASQNVGTNVAWYQQKPGQSPKALIYSASFRYSGVPDRFTGSGSGTDFTLTISNVQSEDLAEFFCQQYNSYPFTFGSGTRLEIK
notes: Mouse IgM, kappa light chain, grown in mouse ascites; also called original IgM; IgM form of the original antibody
Consider B2, for which the midpoint of the response in assay [2], the EC50, lay at 0.14 mg/L.

B3: 2F6 hIgG1 (antibody, V domains shown)
VH: DVKLVESGGGLVKLGGSLKLSCAASGFTFSSYYMSWVRQTPEKRLELVAAINSNGGSTYYPDTVKGRFTISRDNAKNTLYLQMSSLKSEDTAFYYCTRHYSSRFFDVWGAGTTVTVSS
VL: DIVMTQSQKFMSTSVGDRVSVTCKASQNVGTNVAWYQQKPGQSPKALIYSASFRYSGVPDRFTGSGSGTDFTLTISNVQSEDLAEFFCQQYNSYPFTFGSGTRLEIK
By Kd is commonly meant a measure of binding affinity in units of concentration. In turn, B3 displayed an equilibrium dissociation constant (Kd) in assay [3] of 0.05 µM.

B4: recombinant 2F6 mouse IgG2a (antibody, V domains shown)
VH: DVKLVESGGGLVKLGGSLKLSCAASGFTFSSYYMSWVRQTPEKRLELVAAINSNGGSTYYPDTVKGRFTISRDNAKNTLYLQMSSLKSEDTAFYYCTRHYSSRFFDVWGAGTTVTVSS
VL: DIVMTQSQKFMSTSVGDRVSVTCKASQNVGTNVAWYQQKPGQSPKALIYSASFRYSGVPDRFTGSGSGTDFTLTISNVQSEDLAEFFCQQYNSYPFTFGSGTRLEIK
notes: also called 2F6 mIgG2a; mouse IgG2a-2F6
As to B4, in assay [2], the EC50 came to 1.6 mg/L.
